Results taken from article PMC4204861.

Target: rEag1-Δeag (rat)

slow phase of inactivation of rEag1-Δeag (10- or 40-sec test pulses), two-electrode voltage clamp in Xenopus oocytes, co-expression (% reduction in current amplitude): 60
Substance: rEag1 eag domain fragment (domain or fragment)
